Data: US20260137779A1

Key:
[1] = target: human CD3 on T (Jurkat) cells (human) (UniProt P07766); assay: flow cytometry; PerCP-anti-hCD3e (OKT3) staining of Jurkat cells; supernatant of untransfected 293T cells (same control values as in paragraph 403)
[2] = target: human CD3 on T (Jurkat) cells (human) (UniProt P07766); assay: flow cytometry; PerCP-anti-hCD3e (OKT3) staining of Jurkat cells; supernatant of GFP-transfected 293T cells, no competitor
[3] = target: human CD3 on T (Jurkat) cells (human) (UniProt P07766); assay: flow cytometry; PerCP-anti-hCD3e (OKT3) staining of Jurkat cells; supernatant of untransfected 293T cells, no competitor
[4] = target: human CD3 on T (Jurkat) cells (human) (UniProt P07766); assay: flow cytometry; PerCP-anti-hCD3e (OKT3) staining of Jurkat cells; media alone, no competitor
[5] = target: human CD3 on T (Jurkat) cells (human) (UniProt P07766); assay: flow cytometry; PerCP-anti-hCD3e (OKT3) staining of Jurkat cells; supernatant of vector #1323, which lacks a secretion peptide (dimert not secreted)
[6] = target: human CD3 on T (Jurkat) cells (human) (UniProt P07766); assay: flow cytometry; PerCP-anti-hCD3e (OKT3) staining of Jurkat cells; supernatant of vector #1104, which lacks a secretion peptide (dimert not secreted)
[7] = target: human CD3 on T (Jurkat) cells (human) (UniProt P07766); assay: flow cytometry; PerCP-anti-hCD3e (OKT3) staining of Jurkat cells; media alone, no competitor (same control values as in paragraph 403)
[8] = target: human CD3 on T (Jurkat) cells (human) (UniProt P07766); assay: flow cytometry; PerCP-anti-hCD3e (OKT3) staining of Jurkat cells; supernatant of GFP-transfected 293T cells (same control values as in paragraph 403)

% CD3 positive (Q2+Q3) [1]: 79.2%
% CD3 positive (Q2+Q3) [2]: 78.7%
% CD3 positive (Q2+Q3) [3]: 79.2%
% CD3 positive (Q2+Q3) [4]: 77.6%
% CD3 positive (Q2+Q3) [5]: 79.4%
% CD3 positive (Q2+Q3) [6]: 77.7%
% CD3 positive (Q2+Q3) [7]: 77.6%
% CD3 positive (Q2+Q3) [8]: 78.7%
Substance: PerCP-anti-hCD3e antibody (#OKT3)
